Tested on: Escherichia coli TOP10
Experiment: shrunken log2 fold change of peptide-encoding DNA abundance (4.5 h post-induction vs induction); higher = less antimicrobial activity (less host growth inhibition)
Conditions: time post-induction: 4.5 h; library: site-saturation at positions 5, 18, 19, 20
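Note: peptides expressed intracellularly from a pBAD plasmid library in pooled LB shake-flask culture, induced with 0.3% L-arabinose, DNA abundance read by NGS, three biological replicates, DESeq2 with apeglm shrinkage.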

Row | Sequence | shrunken log2 fold change
1 | RRIRNRPPRLPRPRPRPHRRPRP | 0.143
2 | RRIRERPPRLPRPRPRPVYGPRP | -0.375
3 | RRIRSRPPRLPRPRPRPYVLPRP | -0.277
4 | RRIRSRPPRLPRPRPRPRWDPRP | 0.197
5 | RRIRFRPPRLPRPRPRPIGFPRP | -0.27
6 | RRIRMRPPRLPRPRPRPQVFPRP | 0.281
7 | RRIRIRPPRLPRPRPRPLEYPRP | -0.293
8 | RRIRERPPRLPRPRPRPARAPRP | 0.522
9 | RRIRNRPPRLPRPRPRPLDCPRP | -0.00858
10 | RRIRERPPRLPRPRPRPMTTPRP | -0.023
11 | RRIRCRPPRLPRPRPRPDYGPRP | 2.76
12 | RRIRCRPPRLPRPRPRPNSHPRP | -0.556
13 | RRIRCRPPRLPRPRPRPPKKPRP | 0.132
14 | RRIRSRPPRLPRPRPRPAGAPRP | 0.36
15 | RRIRGRPPRLPRPRPRPAVRPRP | 0.312
16 | RRIRERPPRLPRPRPRPRVMPRP | -0.244
17 | RRIRCRPPRLPRPRPRPTRMPRP | 0.0511
18 | RRIRFRPPRLPRPRPRPRDYPRP | -0.2
19 | RRIRQRPPRLPRPRPRPCTPPRP | -0.141
20 | RRIRRRPPRLPRPRPRPCWEPRP | 0.109
21 | RRIRLRPPRLPRPRPRPMNFPRP | -0.102
22 | RRIRTRPPRLPRPRPRPEGMPRP | 0.18
23 | RRIRHRPPRLPRPRPRPTNDPRP | -0.311
24 | RRIRERPPRLPRPRPRPSYHPRP | -0.66
25 | RRIRYRPPRLPRPRPRPWSWPRP | 0.0225

Row | Sequence | shrunken log2 fold change
26 | RRIRMRPPRLPRPRPRPECIPRP | 1.61
27 | RRIRCRPPRLPRPRPRPCQRPRP | 0.0663
28 | RRIRRRPPRLPRPRPRPCNRPRP | -0.509
29 | RRIRTRPPRLPRPRPRPKMVPRP | -0.0237
30 | RRIRARPPRLPRPRPRPIIQPRP | -0.206
31 | RRIRERPPRLPRPRPRPAIYPRP | -0.051
32 | RRIRDRPPRLPRPRPRPRNIPRP | -0.0463
33 | RRIRPRPPRLPRPRPRPHGAPRP | 0.641
34 | RRIRNRPPRLPRPRPRPVETPRP | 0.157
35 | RRIRWRPPRLPRPRPRPYRHPRP | -0.0902
36 | RRIRTRPPRLPRPRPRPVSIPRP | -0.082
37 | RRIRLRPPRLPRPRPRPADRPRP | -0.0121
38 | RRIRQRPPRLPRPRPRPGAIPRP | 0.0781
39 | RRIRTRPPRLPRPRPRPEMIPRP | 0.0294
40 | RRIRQRPPRLPRPRPRPIRQPRP | 0.0167
41 | RRIRPRPPRLPRPRPRPYWQPRP | 0.0184
42 | RRIRLRPPRLPRPRPRPQELPRP | -0.0432
43 | RRIRRRPPRLPRPRPRPLPEPRP | 0.731
44 | RRIRERPPRLPRPRPRPFGDPRP | -0.0107
45 | RRIRRRPPRLPRPRPRPQHVPRP | -0.0783
46 | RRIRHRPPRLPRPRPRPQTVPRP | -0.495
47 | RRIRTRPPRLPRPRPRPRFKPRP | 0.115
48 | RRIRCRPPRLPRPRPRPHSRPRP | 0.0572
49 | RRIRDRPPRLPRPRPRPEYNPRP | -0.116
50 | RRIRFRPPRLPRPRPRPRCGPRP | 0.114

Row | Sequence | shrunken log2 fold change
51 | RRIRCRPPRLPRPRPRPMIFPRP | -0.369
52 | RRIRHRPPRLPRPRPRPTNVPRP | -0.558
53 | RRIRYRPPRLPRPRPRPMPPPRP | -0.331
54 | RRIRARPPRLPRPRPRPRRCPRP | 0.519
55 | RRIRCRPPRLPRPRPRPQHYPRP | -0.796
56 | RRIRKRPPRLPRPRPRPPQHPRP | 0.5
57 | RRIRMRPPRLPRPRPRPILDPRP | -0.0606
58 | RRIRDRPPRLPRPRPRPCHKPRP | -0.00188
59 | RRIRDRPPRLPRPRPRPVSQPRP | -0.0185
60 | RRIRERPPRLPRPRPRPYPTPRP | -0.397
61 | RRIRSRPPRLPRPRPRPTYIPRP | -0.598
62 | RRIRMRPPRLPRPRPRPFPVPRP | -0.175
63 | RRIRWRPPRLPRPRPRPWIEPRP | 0.0929
64 | RRIRYRPPRLPRPRPRPVAPPRP | -0.0629
65 | RRIRGRPPRLPRPRPRPLAGPRP | 0.887
66 | RRIRDRPPRLPRPRPRPKIGPRP | -0.0266
67 | RRIRWRPPRLPRPRPRPKHIPRP | -0.41
68 | RRIRTRPPRLPRPRPRPPPAPRP | 0.746
69 | RRIRPRPPRLPRPRPRPVYTPRP | -0.234
70 | RRIRTRPPRLPRPRPRPMHFPRP | -0.0728
71 | RRIRRRPPRLPRPRPRPHGCPRP | 0.000335
72 | RRIRTRPPRLPRPRPRPGWEPRP | 0.0505
73 | RRIRVRPPRLPRPRPRPGRAPRP | 0.685
74 | RRIRARPPRLPRPRPRPPHHPRP | 0.675
75 | RRIRIRPPRLPRPRPRPAHTPRP | -0.588

Row | Sequence | shrunken log2 fold change
76 | RRIRFRPPRLPRPRPRPMLPPRP | -0.184
77 | RRIRARPPRLPRPRPRPYACPRP | -0.217
78 | RRIRDRPPRLPRPRPRPKQQPRP | -0.053
79 | RRIRQRPPRLPRPRPRPRKIPRP | -0.064
80 | RRIRERPPRLPRPRPRPGVHPRP | -0.139
81 | RRIRIRPPRLPRPRPRPGWRPRP | 0.468
82 | RRIRQRPPRLPRPRPRPCMQPRP | -0.238
83 | RRIRVRPPRLPRPRPRPLKCPRP | -0.412
84 | RRIRFRPPRLPRPRPRPMVLPRP | -0.0723
85 | RRIRPRPPRLPRPRPRPYDEPRP | -0.0606
86 | RRIRMRPPRLPRPRPRPRIYPRP | -0.0363
87 | RRIRDRPPRLPRPRPRPAFSPRP | -0.0405
88 | RRIRERPPRLPRPRPRPSLFPRP | -0.44
89 | RRIRYRPPRLPRPRPRPMCKPRP | -0.368
90 | RRIRERPPRLPRPRPRPQWTPRP | -0.0833
91 | RRIRDRPPRLPRPRPRPINIPRP | -0.282
92 | RRIRNRPPRLPRPRPRPGNDPRP | -0.0364
93 | RRIRWRPPRLPRPRPRPNESPRP | -0.0337
94 | RRIRDRPPRLPRPRPRPHTRPRP | 0.013
95 | RRIRERPPRLPRPRPRPMLGPRP | 0.00848
96 | RRIRIRPPRLPRPRPRPKKYPRP | -0.546
97 | RRIRVRPPRLPRPRPRPTPEPRP | 0.639
98 | RRIRHRPPRLPRPRPRPIHFPRP | -0.171
99 | RRIRSRPPRLPRPRPRPAMNPRP | -0.66
100 | RRIRIRPPRLPRPRPRPASDPRP | -0.077

Row | Sequence | shrunken log2 fold change
101 | RRIRFRPPRLPRPRPRPANGPRP | 0.0551
102 | RRIRLRPPRLPRPRPRPDMQPRP | -0.0583
103 | RRIRKRPPRLPRPRPRPITPPRP | 0.0433
104 | RRIRYRPPRLPRPRPRPWMSPRP | -0.0725
105 | RRIRARPPRLPRPRPRPFGVPRP | 0.165
106 | RRIRFRPPRLPRPRPRPQPNPRP | -0.0249
107 | RRIRMRPPRLPRPRPRPWPKPRP | 0.543
108 | RRIRYRPPRLPRPRPRPCYQPRP | -0.285
109 | RRIRERPPRLPRPRPRPPEDPRP | 2.12
110 | RRIRPRPPRLPRPRPRPLWFPRP | 0.173
111 | RRIRRRPPRLPRPRPRPAHHPRP | 0.332
112 | RRIRVRPPRLPRPRPRPNSLPRP | 0.0679
113 | RRIRHRPPRLPRPRPRPKPDPRP | 0.0401
114 | RRIRCRPPRLPRPRPRPHYTPRP | -0.311
115 | RRIRQRPPRLPRPRPRPKFCPRP | -0.0186
116 | RRIRSRPPRLPRPRPRPDTNPRP | -0.111
117 | RRIRKRPPRLPRPRPRPYYSPRP | -0.373
118 | RRIRMRPPRLPRPRPRPATEPRP | 0.996
119 | RRIRVRPPRLPRPRPRPYVAPRP | -0.643
120 | RRIRNRPPRLPRPRPRPADHPRP | -0.0958
121 | RRIRHRPPRLPRPRPRPCTIPRP | -0.0935
122 | RRIRARPPRLPRPRPRPDKPPRP | 0.865
123 | RRIRRRPPRLPRPRPRPHEHPRP | -0.153
124 | RRIRDRPPRLPRPRPRPRRKPRP | 0.233
125 | RRIRGRPPRLPRPRPRPMWFPRP | 0.185
